Test results published in paper PMC10042821, “Cryo-EM structure of human eIF5A-DHS complex reveals the molecular basis of hypusination-associated neurodegenerative disorders” (Nature Communications, 2023).

Assays:
[1] = target: the molecule itself; assay: cryo-EM structure; complex reconstituted from purified eIF5A-1 and DHS K329A (2 mole eIF5A per 1 mole DHS), 200 mM glycine/NaOH pH 9.3, 200 mM NaCl, 1 mM NAD, 1 mM SPD, purified by SEC; 2.8 A
[2] = target: the molecule itself; assay: mass photometry; Refeyn OneMP, final concentration ~1-5 nM; oligomeric state of DHS variants

B1: deoxyhypusine synthase K329A, catalytically dead variant, tag-free (enzyme, human, UniProt P49366 1-369, looked up)
chain: MEGSLEREAPAGALAAVLKHSSTLPPESTQVRGYDFNRGVNYRALLEAFGTTGFQATNFGRAVQQVNAMIEKKLEPLSQDEDQHADLTQSRRPLTSCTIFLGYTSNLISSGIRETIRYLVQHNMVDVLVTTAGGVEEDLIKCLAPTYLGEFSLRGKELRENGINRIGNLLVPNENYCKFEDWLMPILDQMVMEQNTEGVKWTPSKMIARLGKEINNPESVYYWAQKNHIPVFSPALTDGSLGDMIFFHSYKNPGLVLDIVEDLRLINTQAIFAKCTGMIILGGGVVKHHIANANLMRNGADYAVYINTAQEFDGSDSGARPDEAVSWGAIRVDAQPVKVYADASLVFPLLVAETFAQKMDAFMHEKNED
notes: deoxyhypusine synthase (DHS), Homo sapiens, UniProt P49366, residues 1-369; Tag removal follows the general purification procedure; used for cryo-EM, HDX-MS and crystallography; also called DHS^K329A; source: E. coli, purified (HisTrap, TEV cleavage, reverse HisTrap, SEC); not shown: His6, N-terminal, cleaved
stoichiometry N [1]: 4

B2: deoxyhypusine synthase N173S, patient-derived variant, tag-free (enzyme, human, UniProt P49366 1-369, looked up)
chain: MEGSLEREAPAGALAAVLKHSSTLPPESTQVRGYDFNRGVNYRALLEAFGTTGFQATNFGRAVQQVNAMIEKKLEPLSQDEDQHADLTQSRRPLTSCTIFLGYTSNLISSGIRETIRYLVQHNMVDVLVTTAGGVEEDLIKCLAPTYLGEFSLRGKELRENGINRIGNLLVPSENYCKFEDWLMPILDQMVMEQNTEGVKWTPSKMIARLGKEINNPESVYYWAQKNHIPVFSPALTDGSLGDMIFFHSYKNPGLVLDIVEDLRLINTQAIFAKCTGMIILGGGVVKHHIANANLMRNGADYAVYINTAQEFDGSDSGARPDEAVSWGKIRVDAQPVKVYADASLVFPLLVAETFAQKMDAFMHEKNED
notes: deoxyhypusine synthase (DHS), Homo sapiens, UniProt P49366, residues 1-369, pathological variant N173S; Tag removal follows the general purification procedure; also called DHS^N173S; source: E. coli, purified from the soluble fraction (HisTrap, TEV cleavage, reverse HisTrap, SEC); not shown: His6, N-terminal, cleaved
stoichiometry N [2]: 4

B3: deoxyhypusine synthase delY305_I306, patient-derived variant, tag-free (enzyme, human, UniProt P49366 1-369, looked up)
chain: MEGSLEREAPAGALAAVLKHSSTLPPESTQVRGYDFNRGVNYRALLEAFGTTGFQATNFGRAVQQVNAMIEKKLEPLSQDEDQHADLTQSRRPLTSCTIFLGYTSNLISSGIRETIRYLVQHNMVDVLVTTAGGVEEDLIKCLAPTYLGEFSLRGKELRENGINRIGNLLVPNENYCKFEDWLMPILDQMVMEQNTEGVKWTPSKMIARLGKEINNPESVYYWAQKNHIPVFSPALTDGSLGDMIFFHSYKNPGLVLDIVEDLRLINTQAIFAKCTGMIILGGGVVKHHIANANLMRNGADYAVNTAQEFDGSDSGARPDEAVSWGKIRVDAQPVKVYADASLVFPLLVAETFAQKMDAFMHEKNED
notes: deoxyhypusine synthase (DHS), Homo sapiens, UniProt P49366, residues 1-369, pathological variant lacking Y305 and I306; Tag removal follows the general purification procedure; also called DHS^delY305_I306; DHS^del305Y_306I; source: E. coli, purified from the soluble fraction (HisTrap, TEV cleavage, reverse HisTrap, SEC); not shown: His6, N-terminal, cleaved
stoichiometry N [2]: 2
